Data: US20240239875A1 (published 2024)

T1: HKU1 spike protein (HCoV-HKU1)
T1 chain: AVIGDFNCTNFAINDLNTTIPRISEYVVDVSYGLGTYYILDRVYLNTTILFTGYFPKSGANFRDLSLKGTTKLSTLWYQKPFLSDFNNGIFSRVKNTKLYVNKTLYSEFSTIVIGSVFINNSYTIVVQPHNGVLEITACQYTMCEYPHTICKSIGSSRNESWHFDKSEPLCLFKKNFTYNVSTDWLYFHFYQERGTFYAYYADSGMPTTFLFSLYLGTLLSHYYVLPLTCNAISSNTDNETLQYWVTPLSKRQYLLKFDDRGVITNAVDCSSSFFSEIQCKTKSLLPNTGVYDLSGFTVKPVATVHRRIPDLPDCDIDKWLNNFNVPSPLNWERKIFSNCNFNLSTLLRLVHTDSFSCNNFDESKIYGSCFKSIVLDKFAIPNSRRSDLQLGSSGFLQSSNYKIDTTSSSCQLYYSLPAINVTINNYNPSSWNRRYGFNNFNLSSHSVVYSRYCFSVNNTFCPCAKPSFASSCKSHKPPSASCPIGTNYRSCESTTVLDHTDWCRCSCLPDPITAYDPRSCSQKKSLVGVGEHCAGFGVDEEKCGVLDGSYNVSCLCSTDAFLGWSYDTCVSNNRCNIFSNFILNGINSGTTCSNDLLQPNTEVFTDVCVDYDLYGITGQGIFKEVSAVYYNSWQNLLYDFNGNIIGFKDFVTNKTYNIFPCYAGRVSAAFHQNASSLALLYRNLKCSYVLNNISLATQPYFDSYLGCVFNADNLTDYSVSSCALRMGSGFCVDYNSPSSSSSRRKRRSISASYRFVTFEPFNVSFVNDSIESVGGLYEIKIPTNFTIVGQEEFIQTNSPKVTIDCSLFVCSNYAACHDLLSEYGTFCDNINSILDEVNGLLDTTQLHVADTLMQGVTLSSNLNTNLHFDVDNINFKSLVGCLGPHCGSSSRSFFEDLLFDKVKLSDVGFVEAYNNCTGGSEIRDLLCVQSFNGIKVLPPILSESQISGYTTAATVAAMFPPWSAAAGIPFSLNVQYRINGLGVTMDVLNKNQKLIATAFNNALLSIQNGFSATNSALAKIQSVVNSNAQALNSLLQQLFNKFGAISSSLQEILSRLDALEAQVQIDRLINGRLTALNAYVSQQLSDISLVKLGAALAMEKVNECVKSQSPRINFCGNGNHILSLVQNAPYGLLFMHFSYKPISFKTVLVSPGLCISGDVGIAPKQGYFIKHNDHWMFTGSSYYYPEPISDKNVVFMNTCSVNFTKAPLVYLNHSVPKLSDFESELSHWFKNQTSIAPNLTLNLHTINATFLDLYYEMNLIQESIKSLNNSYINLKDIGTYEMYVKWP

T2: MERS spike protein (MERS-CoV, UniProt K9N5Q8 18-1296)
T2 chain: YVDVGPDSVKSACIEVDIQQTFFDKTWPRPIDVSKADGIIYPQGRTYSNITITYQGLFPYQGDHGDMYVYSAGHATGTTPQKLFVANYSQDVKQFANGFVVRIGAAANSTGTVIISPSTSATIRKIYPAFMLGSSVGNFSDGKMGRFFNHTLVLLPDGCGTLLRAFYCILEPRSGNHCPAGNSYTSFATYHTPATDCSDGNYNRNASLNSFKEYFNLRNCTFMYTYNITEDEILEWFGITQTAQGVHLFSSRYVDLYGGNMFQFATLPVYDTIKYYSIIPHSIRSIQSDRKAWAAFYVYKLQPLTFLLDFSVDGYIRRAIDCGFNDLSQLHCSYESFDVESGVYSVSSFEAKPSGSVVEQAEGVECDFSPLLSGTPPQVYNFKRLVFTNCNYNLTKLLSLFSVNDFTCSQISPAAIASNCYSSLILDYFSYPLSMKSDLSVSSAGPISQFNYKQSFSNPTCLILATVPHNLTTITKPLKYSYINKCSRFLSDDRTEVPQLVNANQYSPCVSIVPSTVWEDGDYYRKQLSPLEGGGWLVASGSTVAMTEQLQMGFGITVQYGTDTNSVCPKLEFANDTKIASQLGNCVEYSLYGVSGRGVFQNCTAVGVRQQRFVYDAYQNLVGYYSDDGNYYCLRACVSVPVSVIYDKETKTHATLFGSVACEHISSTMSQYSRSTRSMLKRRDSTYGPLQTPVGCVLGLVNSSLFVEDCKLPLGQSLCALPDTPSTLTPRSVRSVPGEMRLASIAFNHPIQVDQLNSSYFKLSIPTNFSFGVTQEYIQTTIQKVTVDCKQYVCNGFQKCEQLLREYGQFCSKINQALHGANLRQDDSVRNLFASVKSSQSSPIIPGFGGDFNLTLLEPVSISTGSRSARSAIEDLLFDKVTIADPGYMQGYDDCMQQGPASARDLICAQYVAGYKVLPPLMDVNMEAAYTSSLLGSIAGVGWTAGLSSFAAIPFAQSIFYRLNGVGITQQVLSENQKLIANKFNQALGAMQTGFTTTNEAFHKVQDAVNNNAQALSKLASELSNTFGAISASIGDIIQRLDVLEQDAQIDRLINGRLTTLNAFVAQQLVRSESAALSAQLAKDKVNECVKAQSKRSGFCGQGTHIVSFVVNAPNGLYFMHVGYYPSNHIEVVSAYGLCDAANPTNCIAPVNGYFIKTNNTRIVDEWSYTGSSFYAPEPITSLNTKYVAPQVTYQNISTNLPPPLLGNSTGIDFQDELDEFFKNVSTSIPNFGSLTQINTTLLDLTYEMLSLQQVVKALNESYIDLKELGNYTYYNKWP


Assays:
Assay in all cases: ELISA
HKU1 spike protein = biological target: T1, HKU1 spike protein
[1] = biological target: SARS-CoV-2 prefusion stabilized trimer protein (WIV02 isolate spike protein) (UniProt P0DTC2 14-1213)
[2] = biological target: SARS-CoV-2 receptor binding domain (UniProt P0DTC2 319-541)
SARS-CoV-1 spike protein = SARS-CoV-1 spike protein (SARS-CoV-1, UniProt P59594 14-1195)
SARS-CoV-2 S2 domain = SARS-CoV-2 S2 domain (UniProt P0DTC2 686-1213)
MERS spike protein = biological target: T2, MERS spike protein

Binder	EC50 (HKU1 spike protein)	EC50 [1]	EC50 [2]	EC50 (SARS-CoV-1 spike protein)	EC50 (SARS-CoV-2 S2 domain)	EC50 (MERS spike protein)
4-N22-A (antibody, V domains shown) VH: QVQLQQPGTELVKPGASVKLSCKASGYTFTNYWMYWVKQRPGQGLDWIGNINPSNGGTNYNEKFKSKATLTVDKSSSTAYMQLSSLTSEDSAVYYCARETGNYWGQGTTLTVSS VL: DILMTQSPSSMSVSLGDTVSISCHASQGISSNIGWLQQKPGKSFKGLIYHGTNLEDGVPSRFSGSGSGADYSLTISSLESEDFADYYCVQYAQFPYTFGGGTKLEIK	15.8 nM	17.8 nM	0.21 nM	–	–	–
10-B11-A (antibody, V domains shown) VH: QVQLQQPGAELVKPGASVKVSCKASGYTFTSYWMHWVKQRPGQGLEWIGRIHPSDSDTNYYQKFKGKATLSVDKSSSTAYMQLSSLTSEDSAVYYCAIPLYSYDNSGGYYPMDYWGQGTSVTVSS VL: DIVMTQSQKFMSTSVGDRVTITCKASQNVRTAVAWYQQKPGQSPKKLIYLASNRHTGVPDRFTGSGSGTDFTLAISNVQSEDLADYFCLQHWNYPFTFGSGTRLEIK	> 200 nM	–	–	20.8 nM	1.13 nM	> 200 nM
